Experimental data: patent US20240209076A1 (KODIAK SCIENCES, published 2024)
Where a chain is given by its changes, count along the chain named.

B1: anti-IL-6 Fab, heavy chain S61K (Fab, V domains shown)
VH: EVQLVESGGGLVQPGGSLRLSCAASGFTFSPFAMSWVRQAPGKGLEWVAKISPGGSWTYYKDTVTGRFTFSLDTSKSTAYLQMNSLRAEDTAVYYCARQLWGYYALDIWGQGTLVTVSS
VL: DIQLTQSPSSLSASVGDRVTITCSASISVSYMYWYQQKPGKAPKLLIYDMSNLASGVPSRFSGSGSGTDFTLTISSLQPEDFATYYCMQWSGYPYTFGQGTKVEIK
notes: see m39
B2: anti-IL-6 Fab, heavy chain T58V (Fab, V domains shown)
VH: B1 VH with T58V, K61S
VL: B1 VL
notes: see m39
B3: anti-IL-6 Fab, light chain M88A (Fab, V domains shown)
VH: B1 VH with K61S
VL: B1 VL with M88A
notes: see m39
B4: anti-IL-6 Fab, heavy chain T65I (Fab, V domains shown)
VH: B1 VH with K61S, T65I
VL: B1 VL
notes: see m39
B5: anti-IL-6 Fab, light chain A54G (Fab, V domains shown)
VH: B1 VH with K61S
VL: B1 VL with A54G
notes: see m39
B6: anti-IL-6 Fab, light chain L53H (Fab, V domains shown)
VH: B1 VH with K61S
VL: B1 VL with L53H
notes: see m39
B7: anti-IL-6 Fab, heavy chain T63K (Fab, V domains shown)
VH: B1 VH with K61S, T63K
VL: B1 VL
notes: see m39
B8: anti-IL-6 Fab, heavy chain T58K (Fab, V domains shown)
VH: B1 VH with T58K, K61S
VL: B1 VL
notes: see m39
B9: anti-IL-6 Fab, heavy chain T65G (Fab, V domains shown)
VH: B1 VH with K61S, T65G
VL: B1 VL
notes: see m39
B10: anti-IL-6 Fab, heavy chain T28E (Fab, V domains shown)
VH: B1 VH with T28E, K61S
VL: B1 VL
notes: see m39
B11: anti-IL-6 Fab, heavy chain T58R (Fab, V domains shown)
VH: B1 VH with T58R, K61S
VL: B1 VL
notes: see m39
B12: anti-IL-6 Fab, light chain L53R (Fab, V domains shown)
VH: B1 VH with K61S
VL: B1 VL with L53R
notes: see m39
B13: anti-IL-6 Fab, heavy chain T65L (Fab, V domains shown)
VH: B1 VH with K61S, T65L
VL: B1 VL
notes: see m39
B14: anti-IL-6 Fab, light chain I47V (Fab, V domains shown)
VH: B1 VH with K61S
VL: B1 VL with I47V
notes: see m39
B15: anti-IL-6 Fab, light chain I27W (Fab, V domains shown)
VH: B1 VH with K61S
VL: B1 VL with I27W
notes: see m39
B16: anti-IL-6 Fab, heavy chain V64A (Fab, V domains shown)
VH: B1 VH with K61S, V64A
VL: B1 VL
notes: see m39
B17: anti-IL-6 Fab, heavy chain T65D (Fab, V domains shown)
VH: B1 VH with K61S, T65D
VL: B1 VL
notes: see m39
B18: anti-IL-6 Fab, heavy chain T28Y (Fab, V domains shown)
VH: B1 VH with T28Y, K61S
VL: B1 VL
notes: see m39
B19: anti-IL-6 Fab, light chain A54L (Fab, V domains shown)
VH: B1 VH with K61S
VL: B1 VL with A54L
notes: see m39
B20: anti-IL-6 Fab, light chain M32L (Fab, V domains shown)
VH: B1 VH with K61S
VL: B1 VL with M32L
notes: see m39
B21: anti-IL-6 Fab, light chain A54Y (Fab, V domains shown)
VH: B1 VH with K61S
VL: B1 VL with A54Y
notes: see m39
B22: anti-IL-6 Fab, light chain N52S (Fab, V domains shown)
VH: B1 VH with K61S
VL: B1 VL with N52S
notes: see m39
B23: anti-IL-6 Fab, light chain L53W (Fab, V domains shown)
VH: B1 VH with K61S
VL: B1 VL with L53W
notes: see m39
B24: anti-IL-6 Fab, light chain M50E (Fab, V domains shown)
VH: B1 VH with K61S
VL: B1 VL with M50E
notes: see m39
B25: anti-IL-6 Fab, heavy chain S61R (Fab, V domains shown)
VH: B1 VH with K61R
VL: B1 VL
notes: see m39
B26: anti-IL-6 Fab, heavy chain V64F (Fab, V domains shown)
VH: B1 VH with K61S, V64F
VL: B1 VL
notes: see m39
B27: anti-IL-6 Fab, light chain M50D (Fab, V domains shown)
VH: B1 VH with K61S
VL: B1 VL with M50D
notes: see m39
B28: anti-IL-6 Fab, light chain M32V (Fab, V domains shown)
VH: B1 VH with K61S
VL: B1 VL with M32V
notes: see m39
B29: anti-IL-6 Fab, light chain I27L (Fab, V domains shown)
VH: B1 VH with K61S
VL: B1 VL with I27L
notes: see m39
B30: anti-IL-6 Fab, heavy chain T28A (Fab, V domains shown)
VH: B1 VH with T28A, K61S
VL: B1 VL
notes: see m39
B31: anti-IL-6 Fab, light chain D49E (Fab, V domains shown)
VH: B1 VH with K61S
VL: B1 VL with D49E
notes: see m39
B32: anti-IL-6 Fab, heavy chain T63Q (Fab, V domains shown)
VH: B1 VH with K61S, T63Q
VL: B1 VL
notes: see m39
B33: anti-IL-6 Fab, heavy chain T63D (Fab, V domains shown)
VH: B1 VH with K61S, T63D
VL: B1 VL
notes: see m39
B34: anti-IL-6 Fab, light chain M88V (Fab, V domains shown)
VH: B1 VH with K61S
VL: B1 VL with M88V
notes: see m39
B35: anti-IL-6 Fab, light chain L46V (Fab, V domains shown)
VH: B1 VH with K61S
VL: B1 VL with L46V
notes: see m39
B36: anti-IL-6 Fab, heavy chain T28K (Fab, V domains shown)
VH: B1 VH with T28K, K61S
VL: B1 VL
notes: see m39
B37: anti-IL-6 Fab, heavy chain T63E (Fab, V domains shown)
VH: B1 VH with K61S, T63E
VL: B1 VL
notes: see m39
B38: anti-IL-6 Fab, heavy chain T65A (Fab, V domains shown)
VH: B1 VH with K61S, T65A
VL: B1 VL
notes: see m39
B39: anti-IL-6 Fab, heavy chain V48L (Fab, V domains shown)
VH: B1 VH with V48L, K61S
VL: B1 VL
notes: see m39
B40: anti-IL-6 Fab, heavy chain V48Q (Fab, V domains shown)
VH: B1 VH with V48Q, K61S
VL: B1 VL
notes: see m39
B41: anti-IL-6 Fab, light chain Q89A (Fab, V domains shown)
VH: B1 VH with K61S
VL: B1 VL with Q89A
notes: see m39
B42: anti-IL-6 Fab, heavy chain T65Y (Fab, V domains shown)
VH: B1 VH with K61S, T65Y
VL: B1 VL
notes: see m39
B43: anti-IL-6 Fab, heavy chain W57F (Fab, V domains shown)
VH: B1 VH with W57F, K61S
VL: B1 VL
notes: see m39
B44: anti-IL-6 Fab, light chain A25S (Fab, V domains shown)
VH: B1 VH with K61S
VL: B1 VL with A25S
notes: see m39
B45: anti-IL-6 Fab, light chain A25T (Fab, V domains shown)
VH: B1 VH with K61S
VL: B1 VL with A25T
notes: see m39
B46: anti-IL-6 Fab, light chain I27F (Fab, V domains shown)
VH: B1 VH with K61S
VL: B1 VL with I27F
notes: see m39
B47: anti-IL-6 Fab, heavy chain T63G (Fab, V domains shown)
VH: B1 VH with K61S, T63G
VL: B1 VL
notes: see m39

Target: recombinant human IL-6 (human, UniProt P05231 30-212)
Sequence (P05231 30-212 limits assumed): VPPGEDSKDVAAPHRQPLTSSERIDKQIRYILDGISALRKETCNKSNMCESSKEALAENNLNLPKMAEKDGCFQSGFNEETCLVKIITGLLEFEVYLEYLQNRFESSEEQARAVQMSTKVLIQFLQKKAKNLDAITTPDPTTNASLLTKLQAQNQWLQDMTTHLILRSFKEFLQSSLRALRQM
Assay: SPR, IL-6 on CM5 chip, Fab lysate, 25 C
Experimental: Three ranges of antigen density (100-150 RU, 300-400 RU, 400-600 RU) were obtained by using variable flow times for each chip channel, later blocked with ethanolamine. Supernatants of the 96-well filtered culture lysates were injected at 50 μL/min for 120 seconds. Fitting of dissociation curves (300 seconds) to single exponential decay curve was used for the determination of dissociation rates (koff). Chip surfaces were regenerated with 10 mM Glycine pH 1.7 solution injected at 50 μL/min during 60 seconds after every cycle of sample binding and dissociation.

koff [s⁻¹] | Binder
0.00558 | B1
0.0562 | B2
0.00479 | B3
0.00615 | B4
0.00498 | B5
0.00498 | B6
0.00611 | B7
0.00492 | B8
0.0057 | B9
0.00428 | B10
0.00425 | B11
0.005 | B12
0.00592 | B13
0.00493 | B14
0.00569 | B15
0.00643 | B16
0.00614 | B17
0.0039 | B18
0.00489 | B19
0.00492 | B20
0.00525 | B21
0.00555 | B22
0.00501 | B23
0.00476 | B24

koff [s⁻¹] | Binder
0.00585 | B25
0.00684 | B26
0.00458 | B27
0.00455 | B28
0.00593 | B29
0.00396 | B30
0.00619 | B31
0.0057 | B32
0.00603 | B33
0.00495 | B34
0.00503 | B35
0.00408 | B36
5.53e-05 | B37
0.00615 | B38
0.00517 | B39
0.0034 | B40
0.00585 | B41
0.00574 | B42
0.00615 | B43
0.0048 | B44
0.00479 | B45
0.00594 | B46
0.0539 | B47
